Test results from the supplement of paper PMC7125110.
± gives the standard error. For some assays here: Variants at the floor of the assay were thinned out.

B1: glmS ribozyme (parent)
chain: AUAAAAGCGCCAGAACUACAGAAAUGUAGUUGACGAGGAGGAGGUUUAUCGAAUUUUCGGCGGAUGCCUCCAAA

Experiments:
Conditions in all cases: with glucosamine-6-phosphate
glucosamine-6-phosphate [1] = variants of: B1; assay: kcat; higher = faster cleavage; RNA array
Procedure, shortened: (§1)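 Using a hybridised Cy3 probe at 37 °C, barcoded ribozyme variants transcribed in situ by E. coli RNA polymerase on sequenced MiSeq chips were monitored across tiles imaged over ~14 h. The flow contained glucosamine-6-phosphate from 40 μM to 10 mM in HEPES/KCl/Mg(OAc)2 buffer. Signals were normalised to baseline and to non-cleaving reference variants before per-tile medians were fit to one- or two-exponential decays to yield kobs. Weighted Michaelis–Menten fits across concentrations gave kcat and KM.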

glucosamine-6-phosphate [2] = variants of: B1; assay: KM; higher = weaker cofactor use; RNA array
Procedure, shortened: as §1

glucosamine-6-phosphate [3] = variants of: B1; assay: self-cleavage kobs at 2500 uM GlcN6P; higher = faster cleavage; RNA array
Procedure, shortened: as §1

glucosamine-6-phosphate [4] = variants of: B1; assay: self-cleavage kobs at 10000 uM GlcN6P; higher = faster cleavage; RNA array
Procedure, shortened: as §1

glucosamine-6-phosphate [5] = variants of: B1; assay: self-cleavage kobs at 160 uM GlcN6P; higher = faster cleavage; RNA array
Procedure, shortened: as §1

glucosamine-6-phosphate [6] = variants of: B1; assay: self-cleavage kobs at 40 uM GlcN6P; higher = faster cleavage; RNA array
Procedure, shortened: as §1

glucosamine-6-phosphate [7] = variants of: B1; assay: self-cleavage kobs at 640 uM GlcN6P; higher = faster cleavage; RNA array
Procedure, shortened: as §1

G29U U57C
kcat (glucosamine-6-phosphate [1]): 6.81e-05 ± 7.7e-06 s⁻¹ | KM (glucosamine-6-phosphate [2]): 3360 ± 1100 µM | self-cleavage kobs at 2500 uM GlcN6P (glucosamine-6-phosphate [3]): 2.73e-05 ± 7.7e-06 s⁻¹ | self-cleavage kobs at 10000 uM GlcN6P (glucosamine-6-phosphate [4]): 5.13e-05 ± 6.5e-06 s⁻¹

G35A G43C
kcat (glucosamine-6-phosphate [1]): < 1e-05 s⁻¹ | self-cleavage kobs at 160 uM GlcN6P (glucosamine-6-phosphate [5]): < 1e-05 s⁻¹ | self-cleavage kobs at 10000 uM GlcN6P (glucosamine-6-phosphate [4]): < 1e-05 s⁻¹

C50A U55A
kcat (glucosamine-6-phosphate [1]): 1.62e-05 ± 1.3e-06 s⁻¹ | KM (glucosamine-6-phosphate [2]): 3470 ± 790 µM

G41C U55G
kcat (glucosamine-6-phosphate [1]): 0.00012 ± 1.1e-05 s⁻¹ | KM (glucosamine-6-phosphate [2]): 1930 ± 750 µM | self-cleavage kobs at 2500 uM GlcN6P (glucosamine-6-phosphate [3]): 8.8e-05 ± 3.3e-05 s⁻¹ | self-cleavage kobs at 10000 uM GlcN6P (glucosamine-6-phosphate [4]): 9.95e-05 ± 1.2e-05 s⁻¹

C16U U45C
kcat (glucosamine-6-phosphate [1]): 0.00254 ± 0.00049 s⁻¹ | KM (glucosamine-6-phosphate [2]): 2290 ± 700 µM | self-cleavage kobs at 40 uM GlcN6P (glucosamine-6-phosphate [6]): 4.44e-05 ± 1.1e-05 s⁻¹ | self-cleavage kobs at 160 uM GlcN6P (glucosamine-6-phosphate [5]): 0.000307 ± 0.00014 s⁻¹ | self-cleavage kobs at 640 uM GlcN6P (glucosamine-6-phosphate [7]): 0.000496 ± 0.0001 s⁻¹ | self-cleavage kobs at 2500 uM GlcN6P (glucosamine-6-phosphate [3]): 0.00224 ± 0.0007 s⁻¹ | self-cleavage kobs at 10000 uM GlcN6P (glucosamine-6-phosphate [4]): 0.00203 ± 0.0003 s⁻¹

A52G C68A
kcat (glucosamine-6-phosphate [1]): 2.06e-05 ± 5.7e-06 s⁻¹

A15U A52G
kcat (glucosamine-6-phosphate [1]): 0.00041 ± 2.6e-05 s⁻¹ | KM (glucosamine-6-phosphate [2]): 2270 ± 280 µM | self-cleavage kobs at 640 uM GlcN6P (glucosamine-6-phosphate [7]): 8.94e-05 ± 1.6e-05 s⁻¹ | self-cleavage kobs at 2500 uM GlcN6P (glucosamine-6-phosphate [3]): 0.000222 ± 3.6e-05 s⁻¹ | self-cleavage kobs at 10000 uM GlcN6P (glucosamine-6-phosphate [4]): 0.000331 ± 4.6e-05 s⁻¹

U54C C58A
kcat (glucosamine-6-phosphate [1]): 0.000427 ± 0.0001 s⁻¹ | KM (glucosamine-6-phosphate [2]): 3720 ± 1300 µM | self-cleavage kobs at 640 uM GlcN6P (glucosamine-6-phosphate [7]): 6.93e-05 ± 1.1e-05 s⁻¹ | self-cleavage kobs at 2500 uM GlcN6P (glucosamine-6-phosphate [3]): 0.000153 ± 2.3e-05 s⁻¹ | self-cleavage kobs at 10000 uM GlcN6P (glucosamine-6-phosphate [4]): 0.000361 ± 7.7e-05 s⁻¹

A42U U65G
kcat (glucosamine-6-phosphate [1]): 0.000343 ± 2.8e-05 s⁻¹ | KM (glucosamine-6-phosphate [2]): 3030 ± 500 µM | self-cleavage kobs at 640 uM GlcN6P (glucosamine-6-phosphate [7]): 5.7e-05 ± 1e-05 s⁻¹ | self-cleavage kobs at 2500 uM GlcN6P (glucosamine-6-phosphate [3]): 0.000165 ± 1.9e-05 s⁻¹ | self-cleavage kobs at 10000 uM GlcN6P (glucosamine-6-phosphate [4]): 0.000257 ± 2.8e-05 s⁻¹

A48U C68U
kcat (glucosamine-6-phosphate [1]): 7.9e-05 ± 4.9e-06 s⁻¹ | KM (glucosamine-6-phosphate [2]): 435 ± 140 µM | self-cleavage kobs at 640 uM GlcN6P (glucosamine-6-phosphate [7]): 4.57e-05 ± 6.9e-06 s⁻¹ | self-cleavage kobs at 2500 uM GlcN6P (glucosamine-6-phosphate [3]): 7.48e-05 ± 7.7e-06 s⁻¹ | self-cleavage kobs at 10000 uM GlcN6P (glucosamine-6-phosphate [4]): 7.25e-05 ± 6.1e-06 s⁻¹

A12C A14U C16U U46G
kcat (glucosamine-6-phosphate [1]): 3.1e-05 ± 6.8e-06 s⁻¹

G41C U65A
kcat (glucosamine-6-phosphate [1]): 7.02e-05 ± 4.5e-06 s⁻¹ | KM (glucosamine-6-phosphate [2]): 1620 ± 350 µM | self-cleavage kobs at 40 uM GlcN6P (glucosamine-6-phosphate [6]): < 1e-05 s⁻¹ | self-cleavage kobs at 2500 uM GlcN6P (glucosamine-6-phosphate [3]): 4.49e-05 ± 1e-05 s⁻¹ | self-cleavage kobs at 10000 uM GlcN6P (glucosamine-6-phosphate [4]): 5.94e-05 ± 1.1e-05 s⁻¹

C16U A48C
kcat (glucosamine-6-phosphate [1]): 0.000297 ± 6.4e-05 s⁻¹ | KM (glucosamine-6-phosphate [2]): 3910 ± 1700 µM | self-cleavage kobs at 640 uM GlcN6P (glucosamine-6-phosphate [7]): 3.07e-05 ± 1.2e-05 s⁻¹ | self-cleavage kobs at 2500 uM GlcN6P (glucosamine-6-phosphate [3]): 0.000142 ± 2.4e-05 s⁻¹ | self-cleavage kobs at 10000 uM GlcN6P (glucosamine-6-phosphate [4]): 0.000203 ± 3.1e-05 s⁻¹

G7A U55A
kcat (glucosamine-6-phosphate [1]): 8.93e-05 ± 9.4e-06 s⁻¹

C11A G32U
kcat (glucosamine-6-phosphate [1]): 5.22e-05 ± 2.5e-05 s⁻¹ | self-cleavage kobs at 40 uM GlcN6P (glucosamine-6-phosphate [6]): < 1e-05 s⁻¹ | self-cleavage kobs at 160 uM GlcN6P (glucosamine-6-phosphate [5]): < 1e-05 s⁻¹

G37A C67A
kcat (glucosamine-6-phosphate [1]): 0.000407 ± 4.2e-05 s⁻¹ | KM (glucosamine-6-phosphate [2]): 1680 ± 370 µM | self-cleavage kobs at 640 uM GlcN6P (glucosamine-6-phosphate [7]): 0.000119 ± 2e-05 s⁻¹ | self-cleavage kobs at 2500 uM GlcN6P (glucosamine-6-phosphate [3]): 0.000258 ± 4e-05 s⁻¹ | self-cleavage kobs at 10000 uM GlcN6P (glucosamine-6-phosphate [4]): 0.000336 ± 4.8e-05 s⁻¹

C8U C10A A15U G38A C50U
kcat (glucosamine-6-phosphate [1]): < 1e-05 s⁻¹

G29A G59C C70G
kcat (glucosamine-6-phosphate [1]): < 1e-05 s⁻¹

A33U A39G
kcat (glucosamine-6-phosphate [1]): 0.00016 ± 3.8e-05 s⁻¹ | self-cleavage kobs at 160 uM GlcN6P (glucosamine-6-phosphate [5]): < 1e-05 s⁻¹ | self-cleavage kobs at 2500 uM GlcN6P (glucosamine-6-phosphate [3]): 6.65e-05 ± 2.8e-05 s⁻¹ | self-cleavage kobs at 10000 uM GlcN6P (glucosamine-6-phosphate [4]): 0.000108 ± 1.3e-05 s⁻¹

A6U G40A
kcat (glucosamine-6-phosphate [1]): 5.46e-05 ± 2e-06 s⁻¹ | KM (glucosamine-6-phosphate [2]): 1650 ± 280 µM | self-cleavage kobs at 2500 uM GlcN6P (glucosamine-6-phosphate [3]): 3.37e-05 ± 1e-05 s⁻¹ | self-cleavage kobs at 10000 uM GlcN6P (glucosamine-6-phosphate [4]): 4.67e-05 ± 7e-06 s⁻¹
